T1: Human OX40 (Sino Biological Inc) (human, UniProt P43489 29-216, limits assumed)
T1 construct: Bought soluble protein used as SPR analyte; also called huOX40
T1 sequence: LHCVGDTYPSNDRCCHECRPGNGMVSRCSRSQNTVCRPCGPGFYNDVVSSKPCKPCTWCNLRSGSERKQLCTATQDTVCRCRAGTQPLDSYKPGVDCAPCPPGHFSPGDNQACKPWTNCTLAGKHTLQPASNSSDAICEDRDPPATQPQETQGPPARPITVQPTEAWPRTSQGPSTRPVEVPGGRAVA

B1: 1A7.gr.DA (antibody, V domains shown)
VH: EVQLVQSGAEVKKPGASVKVSCKASGYTFTDAYMSWVRQAPGQGLEWIGDMYPDNGDSSYNQKFRERVTITRDTSTSTAYLELSSLRSEDTAVYYCVLAPRWYFSVWGQGTLVTVSS
VL: DIQMTQSPSSLSASVGDRVTITCRASQDISNYLNWYQQKPGKAPKLLIYYTSRLRSGVPSRFSGSGSGTDFTLTISSLQPEDFATYYCQQGHTLPPTFGQGTKVEIK
B2: 1A7.gr.NADS (antibody, V domains shown)
VH: EVQLVQSGAEVKKPGASVKVSCKASGYTFTDSYMSWVRQAPGQGLEWIGDMYPDNADSSYNQKFRERVTITRDTSTSTAYLELSSLRSEDTAVYYCVLAPRWYFSVWGQGTLVTVSS
VL: DIQMTQSPSSLSASVGDRVTITCRASQDISNYLNWYQQKPGKAPKLLIYYTSRLRSGVPSRFSGSGSGTDFTLTISSLQPEDFATYYCQQGHTLPPTFGQGTKVEIK
B3: 1A7.gr.NGSS (antibody, V domains shown)
VH: EVQLVQSGAEVKKPGASVKVSCKASGYTFTDSYMSWVRQAPGQGLEWIGDMYPDNGSSSYNQKFRERVTITRDTSTSTAYLELSSLRSEDTAVYYCVLAPRWYFSVWGQGTLVTVSS
VL: DIQMTQSPSSLSASVGDRVTITCRASQDISNYLNWYQQKPGKAPKLLIYYTSRLRSGVPSRFSGSGSGTDFTLTISSLQPEDFATYYCQQGHTLPPTFGQGTKVEIK
B4: 1A7.gr.NADA (antibody, V domains shown)
VH: EVQLVQSGAEVKKPGASVKVSCKASGYTFTDSYMSWVRQAPGQGLEWIGDMYPDNADASYNQKFRERVTITRDTSTSTAYLELSSLRSEDTAVYYCVLAPRWYFSVWGQGTLVTVSS
VL: DIQMTQSPSSLSASVGDRVTITCRASQDISNYLNWYQQKPGKAPKLLIYYTSRLRSGVPSRFSGSGSGTDFTLTISSLQPEDFATYYCQQGHTLPPTFGQGTKVEIK
B5: 1A7.gr.DANADA (antibody, V domains shown)
VH: EVQLVQSGAEVKKPGASVKVSCKASGYTFTDAYMSWVRQAPGQGLEWIGDMYPDNADASYNQKFRERVTITRDTSTSTAYLELSSLRSEDTAVYYCVLAPRWYFSVWGQGTLVTVSS
VL: DIQMTQSPSSLSASVGDRVTITCRASQDISNYLNWYQQKPGKAPKLLIYYTSRLRSGVPSRFSGSGSGTDFTLTISSLQPEDFATYYCQQGHTLPPTFGQGTKVEIK
B6: 1A7.gr.SGDS (antibody, V domains shown)
VH: EVQLVQSGAEVKKPGASVKVSCKASGYTFTDSYMSWVRQAPGQGLEWIGDMYPDSGDSSYNQKFRERVTITRDTSTSTAYLELSSLRSEDTAVYYCVLAPRWYFSVWGQGTLVTVSS
VL: DIQMTQSPSSLSASVGDRVTITCRASQDISNYLNWYQQKPGKAPKLLIYYTSRLRSGVPSRFSGSGSGTDFTLTISSLQPEDFATYYCQQGHTLPPTFGQGTKVEIK
B7: 1D2.gr.2 (antibody, V domains shown)
VH: EVQLVESGPGLVKPSETLSLTCTVSGFSLTDYGVLWIRQPPGKGLEWIGMIWSGGTTDYNAAFISRVTISKDTSKNQVSLKLSSVTAADTAVYYCVREEMDYWGQGTLVTVSS
VL: DIQMTQSPSSLSASVGDRVTITCRASQDISNFLNWYQQKPGKAPKLLIYYTSRLHSGVPSRFSGSGSGTDFTLTISSLQPEDFATYYCQQGNTLPWTFGQGTKVEIK
notes: human Fc
B8: 1A7.gr.2 (antibody, V domains shown)
VH: EVQLVQSGAEVKKPGASVKVSCKASGYTFTDSYMSWVRQAPGQGLEWIGDMYPDNGDSSYNQKFRERVTITVDTSTSTAYLELSSLRSEDTAVYYCVLAPRWYFSVWGQGTLVTVSS
VL: DIQMTQSPSSLSASVGDRVTITCRASQDISNYLNWYQQKPGKAPKLLIYYTSRLRSGVPSRFSGSGSGTDFTLTISSLQPEDFATYYCQQGHTLPPTFGQGTKVEIK
notes: human Fc (captured by anti-human Fc)
B9: 1D2.gr.3 (antibody, V domains shown)
VH: EVQLVESGPGLVKPSETLSLTCTVSGFSLTDYGVLWVRQPPGKGLEWLGMIWSGGTTDYNAAFISRLTISKDTSKNQVSLKLSSVTAADTAVYYCVREEMDYWGQGTLVTVSS
VL: DIQMTQSPSSLSASVGDRVTITCRASQDISNFLNWYQQKPGKAPKLLIYYTSRLHSGVPSRFSGSGSGTDFTLTISSLQPEDFATYYCQQGNTLPWTFGQGTKVEIK
notes: human Fc
B10: 1D2.gr.1 (antibody, V domains shown)
VH: EVQLVESGPGLVKPSETLSLTCTVSGFSLTDYGVLWIRQPPGKGLEWIGMIWSGGTTDYNAAFISRVTISVDTSKNQFSLKLSSVTAADTAVYYCVREEMDYWGQGTLVTVSS
VL: DIQMTQSPSSLSASVGDRVTITCRASQDISNFLNWYQQKPGKAPKLLIYYTSRLHSGVPSRFSGSGSGTDFTLTISSLQPEDFATYYCQQGNTLPWTFGQGTKVEIK
notes: human Fc
B11: 3C8.gr.10 (antibody, V domains shown)
VH: EVQLVQSGAEVKKPGASVKVSCKASGYAFTNYLIEWVRQAPGQGLEWIGVINPGSGDTYYSEKFKGRVTLTRDTSTSTAYLELSSLRSEDTAVYYCARDRLDYWGQGTLVTVSS
VL: DIQMTQSPSSLSASVGDRVTITCHASQDISSYIVWYQQKPGKAFKLLIYHGTNLEDGVPSRFSGSGSGTDFTLTISSLQPEDFATYYCVHYAQFPYTFGQGTKVEIK
notes: human Fc
B12: 3C8.gr.11 (antibody, V domains shown)
VH: EVQLVQSGAEVKKPGASVKVSCKASGYAFTNYLIEWVRQAPGQGLEWIGVINPGSGDTYYSEKFKGRVTLTRDTSTSTAYLELSSLRSEDTAVYYCARDRLDYWGQGTLVTVSS
VL: DIQMTQSPSSLSASVGDRVTITCHASQDISSYIVWYQQKPGKAPKGLIYHGTNLEDGVPSRFSGSGSGTDFTLTISSLQPEDFATYYCVHYAQFPYTFGQGTKVEIK
notes: human Fc
B13: 3C8.gr.DQ (antibody, V domains shown)
VH: EVQLVQSGAEVKKPGASVKVSCKASGYAFTNYLIEWVRQAPGQGLEWIGVINPGSGDQYYSEKFKGRVTLTADTSTSTAYLELSSLRSEDTAVYYCARDRLDYWGQGTLVTVSS
VL: DIQMTQSPSSLSASVGDRVTITCHASQDISSYIVWYQQKPGKSFKGLIYHGTNLEDGVPSRFSGSGSGTDFTLTISSLQPEDFATYYCVHYAQFPYTFGQGTKVEIK
notes: also called 3C8.gr.5.DQ
B14: 3C8.gr.DA (antibody, V domains shown)
VH: EVQLVQSGAEVKKPGASVKVSCKASGYAFTNYLIEWVRQAPGQGLEWIGVINPGSGDAYYSEKFKGRVTLTADTSTSTAYLELSSLRSEDTAVYYCARDRLDYWGQGTLVTVSS
VL: DIQMTQSPSSLSASVGDRVTITCHASQDISSYIVWYQQKPGKSFKGLIYHGTNLEDGVPSRFSGSGSGTDFTLTISSLQPEDFATYYCVHYAQFPYTFGQGTKVEIK
notes: also called 3C8.gr.5.DA

These binders were tested against T1, Human OX40 (Sino Biological Inc) (assay: SPR (Biacore), antibody captured via anti-human Fc, huOX40 analyte).
Method: (§1) The binding kinetics of the anti-OX40 antibodies was measured using surface plasmon resonance (SPR) on a Biacore 3000 instrument (GE Healthcare). Anti-human Fc (GE Healthcare) was immobilized on a CM5 sensor chip via amine-based coupling using manufacturer provided protocol. Anti-OX40 antibody was captured at a level of 300-400 resonance units (RU). Antibody binding was measured to human OX40 (Sino Biological Inc). Two-fold concentration series of huOX40 with a range of either 18.75 to 300 nM or 6.25 to 200 nM were used for the experiments. Sensorgrams for binding of OX40 were recorded using an injection time of 2 minutes with a flow rate of 30 μl/min, at a temperature of 25° C., and with a running buffer of 10 mM HEPES, pH 7.4, 150 mM NaCl, and 0.005% Tween 20. After injection, disassociation of the ligand from the antibody was monitored for 600 seconds in running buffer. The surface was regenerated between binding cycles with a 40 μl injection of 3 M Magnesium Chloride.
Variants were tested by Biacore as described above to evaluate binding kinetics and in co-stimulation assays to determine biological activity.
B1 was tested, and the Kd was 0.259 nM, the koff was 8.32e-05 s⁻¹ and the kon was 321000 M⁻¹ s⁻¹.
B2 was tested, and the Kd was 0.442 nM, the koff was 0.000121 s⁻¹ and the kon was 275000 M⁻¹ s⁻¹.
Binder B3 has a Kd of 0.311 nM, a koff of 0.000108 s⁻¹ and a kon of 349000 M⁻¹ s⁻¹.
B4 was tested, and the Kd was 0.355 nM, the koff was 0.000108 s⁻¹ and the kon was 304000 M⁻¹ s⁻¹.
In the case of B5, the Kd is reported as 0.557 nM, the koff is reported as 0.000215 s⁻¹ and the kon is reported as 387000 M⁻¹ s⁻¹.
B6 was tested, and the Kd was 0.993 nM, the “fold loss of binding affinity (against 1A7.gr.1)” value was 2 fold and the koff was 0.000228 s⁻¹. For the same binder, the kon was 230000 M⁻¹ s⁻¹.

Biological target: T1, Human OX40 (Sino Biological Inc)
Assay: as above
Remark: another data set of the same source
Method: as §1
Work on B7 yielded a Kd of 55.9 nM, a koff of 0.0178 s⁻¹ and a kon of 319000 M⁻¹ s⁻¹.
B8 was tested, and the Kd was 0.524 nM, the koff was 0.000233 s⁻¹ and the kon was 444000 M⁻¹ s⁻¹.
With B9 the Kd was 59.5 nM, the koff was 0.0163 s⁻¹ and the kon was 273000 M⁻¹ s⁻¹.
B10: binds.
In the case of B11, the Kd is reported as 2.84 nM, the koff is reported as 0.00108 s⁻¹ and the kon is reported as 382000 M⁻¹ s⁻¹.
Work on B12 yielded a Kd of 2.86 nM, a koff of 0.000917 s⁻¹ and a kon of 321000 M⁻¹ s⁻¹.
Work on B13 yielded a Kd of 8.12 nM, a koff of 0.00309 s⁻¹ and a kon of 381000 M⁻¹ s⁻¹.
Work on B14 yielded a Kd of 12.9 nM, a koff of 0.00502 s⁻¹ and a kon of 388000 M⁻¹ s⁻¹.

Reference: patent publication US20150307617A1 (Genentech, published 2015)
